Assay [1] addresses FcγRIIIa-V158-Streptavidin (tetrameric) (human) (UniProt P08637).
Assay [2] concerns the target FcγRIIIa-V158-GST (dimeric FcγRIIIaV158) (human) (UniProt P08637).
Assay [3] concerns the target FcγRIIb-GST (dimeric FcγRIIb) (human) (UniProt P31994).
The target of assay [4] is C1q protein from human serum (human) (UniProt P02745). Kind of assay: FACS, spheroplasts, 10 nM C1q-PE.
The target is the same in assay [5]. Kind of assay: FACS, spheroplasts, 10 nM C1q-PE, high-salt buffer (FIG. 3C).
Assay [6] has the same target. The assay can be described thus: FACS, 10 nM C1q-PE; reference itself.
Assay [7] has the same target. The assay can be described thus: FACS, cell display, 10 nM C1q-PE.
The target of assay [8] is FcγRIIIa-V158-Streptavidin (tetrameric) (human) (UniProt P08637). The source holds these as a separate data set.
A further assay addresses FcγRs. Kind of assay: cell-based or functional assay.

MFI, Increasing Fold and ADCC EC50, Raji targets, PBMC data for two substances are collected here from patent US20200102400A1.

Like-named read-outs stand apart in the source and are kept apart here.

C1q protein from human serum (human), sequence (P02745 23-245, chain 1 of 3): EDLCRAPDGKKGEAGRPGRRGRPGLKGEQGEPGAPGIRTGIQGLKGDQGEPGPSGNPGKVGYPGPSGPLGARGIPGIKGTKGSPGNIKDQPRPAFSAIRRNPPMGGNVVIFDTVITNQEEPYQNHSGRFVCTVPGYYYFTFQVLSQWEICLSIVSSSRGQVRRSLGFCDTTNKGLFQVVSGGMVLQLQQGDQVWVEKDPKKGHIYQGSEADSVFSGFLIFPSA
C1q protein from human serum (human), sequence (P02746 28-253, chain 2 of 3, further chain): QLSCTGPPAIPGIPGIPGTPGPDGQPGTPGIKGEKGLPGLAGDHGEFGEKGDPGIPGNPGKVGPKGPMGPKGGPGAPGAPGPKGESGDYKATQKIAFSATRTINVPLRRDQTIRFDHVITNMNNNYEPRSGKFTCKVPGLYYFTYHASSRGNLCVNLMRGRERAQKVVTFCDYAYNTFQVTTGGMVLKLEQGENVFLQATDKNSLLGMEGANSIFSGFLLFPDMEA
C1q protein from human serum (human), sequence (P02747 29-245, chain 3 of 3, further chain): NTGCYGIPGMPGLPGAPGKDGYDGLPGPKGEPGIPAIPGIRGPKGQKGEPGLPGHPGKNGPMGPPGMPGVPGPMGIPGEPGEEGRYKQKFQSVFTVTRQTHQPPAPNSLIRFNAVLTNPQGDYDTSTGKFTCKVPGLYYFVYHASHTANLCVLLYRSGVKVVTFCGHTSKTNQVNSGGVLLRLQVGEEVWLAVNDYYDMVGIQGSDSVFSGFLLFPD
FcγRIIIa-V158-Streptavidin (tetrameric) (human), sequence (P08637 17-208 F176V): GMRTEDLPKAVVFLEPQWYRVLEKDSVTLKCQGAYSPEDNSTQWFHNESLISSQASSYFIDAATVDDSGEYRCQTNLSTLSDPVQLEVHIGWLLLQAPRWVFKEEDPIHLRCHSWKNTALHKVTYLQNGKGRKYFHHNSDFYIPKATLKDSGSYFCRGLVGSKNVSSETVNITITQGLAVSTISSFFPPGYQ
FcγRIIIa-V158-GST (dimeric FcγRIIIaV158) (human), sequence (P08637 17-208 F176V): as above
FcγRIIb-GST (dimeric FcγRIIb) (human), sequence (P31994 43-217): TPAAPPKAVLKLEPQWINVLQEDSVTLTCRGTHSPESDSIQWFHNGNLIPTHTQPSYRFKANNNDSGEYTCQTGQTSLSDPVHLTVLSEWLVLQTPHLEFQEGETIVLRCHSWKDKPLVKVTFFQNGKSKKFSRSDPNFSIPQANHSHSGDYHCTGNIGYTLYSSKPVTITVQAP

With “wild-type aglycosylated IgG displayed on E. coli spheroplasts (antibody)”, the MFI in [1] amounted to 6.44; in assay [2], 3.8; in assay [3] it was 4.5; in assay [4] it was 54.7; in assay [5] it was 14.9; in assay [7] it was 23.5. The same substance returned an MFI in assay [8] of 36.6. The Increasing Fold in assay [6] is 1 fold.

In the case of “Rituximab (glycosylated wild-type IgG1) (antibody)”, the ADCC EC50, Raji targets, PBMC with FcγRs stood at 2.11 nM.
